According to IntAct's records for PubMed 11923305:

How the values were obtained:
src_human SRC [1] = molecular target: src_human SRC (UniProt P12931)
src_chick SRC [2] = molecular target: src_chick SRC (UniProt P00523)
src_human SRC [3] = molecular target: src_human SRC (UniProt P12931); remark: listed apart in the source
src_chick SRC [4] = molecular target: src_chick SRC (UniProt P00523); remark: listed apart in the source

| effect of a mutation on the interaction (src_human SRC [1]) | effect of a mutation on the interaction (src_chick SRC [2]) | effect of a mutation on the interaction (src_human SRC [3]) | effect of a mutation on the interaction (src_chick SRC [4]) | Substance |
| --- | --- | --- | --- | --- |
| disrupting interaction | disrupting interaction |  |  | Receptor-type tyrosine-protein phosphatase alpha (Homo sapiens) (from UniProt P18433) S204A |
|  |  | disrupting interaction | disrupting interaction | Receptor-type tyrosine-protein phosphatase alpha (Homo sapiens) (from UniProt P18433) S189A |
